# Reference: patent US20220265759
# T1: human chemokine receptor CCR10, P46092
# T1 chain: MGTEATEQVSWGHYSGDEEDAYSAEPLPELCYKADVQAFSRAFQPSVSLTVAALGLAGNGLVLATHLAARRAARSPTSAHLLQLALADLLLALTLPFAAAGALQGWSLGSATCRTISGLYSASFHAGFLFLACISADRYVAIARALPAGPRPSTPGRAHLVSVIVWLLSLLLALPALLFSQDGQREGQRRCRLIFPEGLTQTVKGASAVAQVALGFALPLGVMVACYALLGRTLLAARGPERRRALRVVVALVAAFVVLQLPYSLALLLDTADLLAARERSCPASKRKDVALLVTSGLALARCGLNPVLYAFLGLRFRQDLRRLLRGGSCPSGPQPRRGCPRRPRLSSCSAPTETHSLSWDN
# B1: human endothelial nitric oxide synthase (eNOS) (protein)
# chain: GNLKSVAQEPGPPCGLGLGLGLGLCGKQGPATPAPEPSRAPASLLPPAPEHSPPSSPLTQPPEGPKFPRVKNWEVGSITYDTLSAQAQQDGPCTPRRCLGSLVFPRKLQGRPSPGPPAPEQLLSQARDFINQYYSSIKRSGSQAHEQRLQEVEAEVAATGTYQLRESELVFGAKQAWRNAPRCVGRIQWGKLQVFDARDCRSAQEMFTYICNHIKYATNRGNLRSAITVFPQRCPGRGDFRIWNSQLVRYAGYRQQDGSVRGDPANVEITELCIQHGWTPGNGRFDVLPLLLQAPDDPPELFLLPPELVLEVPLEHPTLEWFAALGLRWYALPAVSNMLLEIGGLEFPAAPFSGWYMSTEIGTRNLCDPHRYNILEDVAVCMDLDTRTTSSLWKDKAAVEINVAVLHSYQLAKVTIVDHHAATASFMKHLENEQKARGGCPADWAWIVPPISGSLTPVFHQEMVNYFLSPAFRYQPDPWKGSAAKGTGITRKKTFKEVANAVKISASLMGTVMAKRVKATILYGSETGRAQSYAQQLGRLFRKAFDPRVLCMDEYDVVSLEHETLVLVVTSTFGNGDPPENGESFAAALMEMSGPYNSSPRPEQHKSYKIRFNSISCSDPLVSSWRRKRKESSNTDSAGALGTLRFCVFGLGSRAYPHFCAFARAVDTRLEELGGERLLQLGQGDELCGQEEAFRGWAQAAFQAACETFCVGEDAKAAARDIFSPKRSWKRQRYRLSAQAEGLQLLPGLIHVHRRKMFQATIRSVENLQSSKSTRATILVRLDTGGQEGLQYQPGDHIGVCPPNRPGLVEALLSRVEDPPAPTEPVAVEQLEKGSPGGPPPGWVRDPRLPPCTLRQALTFFLDITSPPSPQLLRLLSTLAEEPREQQELEALSQDPRRYEEWKWFRCPTLLEVLEQFPSVALPAPLLLTQLPLLQPRYYSVSSAPSTHPGEIHLTVAVLAYRTQDGLGPLHYGVCSTWLSQLKPGDPVPCFIRGAPSFRLPPDPSLPCILVGPGTGIAPFRGFWQERLHDIESKGLQPTPMTLVFGCRCSQLDHLYRDEVQNAQQRGVFGRVLTAFSREPDNPKTYVQDILRTELAAEVHRVLCLERGHMFVCGDVTMATNVLQTVQRILATEGDMELDEAGDVIGVLRDQQRYHEDIFGLTLRTQEVTSRIRTQSFSLQERQLRGAVPWAFDPPGSDTNSP
# Target: T1, human chemokine receptor CCR10, P46092
protein,measurement,value
B1,eNOS phosphorylation (Ser1177) in presence of Myr-CBD7,eNOS phosphorylation (Ser1177) was significantly enhanced in presence of Myr-CBD7
same,"phosphorylation of eNOS after CCR10 siRNA knockdown (western blot, A23187 stimulation)","phosphorylation of eNOS was significantly increased compared to control siRNA, even at 0 minutes"
